Article PMC6684798, “Structural basis for the target specificity of actin histidine methyltransferase SETD3” (Nature Communications, 2019)
Changes are numbered by the printed parent chain.

Experiments:
SETD3 WT = molecular target: T1, SETD3 WT (Homo sapiens, UniProt Q86TU7); assay: Steady-state kinetics of SETD3 WT on K73 peptides (Fig. 3b, c; pH 10.5, 37 °C, 40 µM SAM); type: biochemical
T1 construct: GST (cleaved yes); made in house; host or cells: Escherichia coli BL21(DE3) CodonPlus
T1 sequence (Q86TU7 1-594): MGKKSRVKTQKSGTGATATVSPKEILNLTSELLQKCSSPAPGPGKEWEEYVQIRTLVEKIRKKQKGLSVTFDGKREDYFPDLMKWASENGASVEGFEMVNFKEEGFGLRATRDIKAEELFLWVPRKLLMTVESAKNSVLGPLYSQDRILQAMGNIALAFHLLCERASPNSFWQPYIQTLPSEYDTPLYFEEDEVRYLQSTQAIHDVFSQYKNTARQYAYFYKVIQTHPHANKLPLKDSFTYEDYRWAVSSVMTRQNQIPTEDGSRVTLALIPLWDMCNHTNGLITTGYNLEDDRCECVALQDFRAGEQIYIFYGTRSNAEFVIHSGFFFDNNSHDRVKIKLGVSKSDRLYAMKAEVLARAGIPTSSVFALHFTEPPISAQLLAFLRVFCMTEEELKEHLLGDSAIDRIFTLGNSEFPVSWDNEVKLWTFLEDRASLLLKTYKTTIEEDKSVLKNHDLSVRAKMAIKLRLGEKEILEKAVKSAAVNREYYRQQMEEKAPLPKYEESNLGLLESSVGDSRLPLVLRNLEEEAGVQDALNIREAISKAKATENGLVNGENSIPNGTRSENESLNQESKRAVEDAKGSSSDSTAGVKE
Method: Fig. 3 Kinetics of SETD3 on H73 and K73 peptides. a Comparison of activities of three variants (WT, N255A, and N255V) on H73(66–80) peptide. The assays were performed at room temperature (~22 °C) and pH 8.0 using [WT] = 0.18 μM, [N255A] = 0.18 μM, and [N255V] = 0.72 μM. b Comparison of SETD3 WT activities on two K73 peptides (residues 66–80 and 66–88). The assays were performed at 37 °C and pH 10.5 using [WT] = 3 and 15 μM, respectively, for the long and short peptides. c Comparison of activities of three variants (N255A, N255V, and WT) on K73(66–88) peptide. The assays were performed at 37 °C and pH 10.5 using [N255A] = 90 nM, [N255V] = 0.72 μM and [WT] = 4 μM. Data represent the mean ± SD of N number of independent determinations (N = 3 for the WT and N = 2 for the mutants) performed in duplicate. Source data are provided as a Source Data file. d, e Mass spectrometry analysis of K73(66–88) methylation kinetic showing representative spectra at various time points for N255A variant (panel d) and SETD3 WT enzyme (panel e). The assays were performed at 37 °C and pH 10.5 using 3 μM for both N255A and WT. f In vitro methylation reactions with SETD3, indicated full-length actin proteins, and radiolabeled methyl donor (^3H-SAM). Right, Reactions were resolved by SDS–PAGE and activity was visualized by autoradiography. […] The first column head is 'SETD3', and the substrate peptide is printed only on the plot axis. / Panel b: the first column head is 'SETD3 (WT)', and the rows are K73 peptide substrates.
Recombinant human SETD3 (pXC2003) was expressed as a GST-fusion[22] in Escherichia coli BL21(DE3) CodonPlus^TM cells (Stratagene). The SETD3 mutants at residue 255 (N255A; pXC2093 and N255V; pXC2094) were generated with Q5 Site-Directed Mutagenesis Kit (New England Biolabs), confirmed by sequencing and the same protocol for expression and purification were followed. Briefly, the purification was conducted in a BIO-RAD NGC^TM system using a three-column chromatography of glutathione-sepharose, HiTrap Q-HP and Superdex 200. The GST tag was removed by PreScisson Protease (purified in-house). The purified SETD3 proteins at a concentration ~25–35 mg/ml were kept at −80 °C in storage buffer for future use [20 mM Tris (pH 8.0), 200 mM NaCl, 5% glycerol, and 0.5 mM tris (2-carboxyethyl) phosphine (TCEP)].
A reaction mixture contained 20 mM Tris/HCl (pH 8.0) or 20 mM glycine/NaOH (pH 10.5), 50 mM NaCl, 0.1 mg/ml BSA, 1 mM DTT, 0.18–15 µM SETD3 (as indicated in Fig. 3), 40 µM SAM and varying concentration of peptides. The reactions were carried out at room temperature (~22 °C) or 37 °C for different time (20 min to 3 h) with a total volume of 20 µl, and terminated by the addition of TFA to 0.1% (v/v) for Tris/HCl (pH 8.0) or 0.4% (v/v) for Glycine/NaOH (pH 10.5). Samples terminated with the addition of 0.4% (v/v) TFA were then further diluted 4× with buffer 20 mM Tris/HCl (pH 8.0), 50 mM NaCl, 0.1 mg/ml BSA, 1 mM DTT to reduce the TFA concentration. The dependence of the velocity of product formation per enzyme on substrate concentration was analyzed according to the Michaelis–Menten equation.

SETD3 N255A = molecular target: T2, SETD3 N255A (Homo sapiens, UniProt Q86TU7, N256A); assay: Steady-state kinetics of SETD3 N255A on K73(66–88) (Fig. 3c; pH 10.5, 37 °C, [N255A] = 90 nM, 40 µM SAM); type: biochemical; settings: relative to WT SETD3, Fig. 3c
T2 construct: GST (cleaved yes); made in house; host or cells: Escherichia coli BL21(DE3) CodonPlus
T2 sequence (Q86TU7 1-594 N256A): T1 sequence (Q86TU7 1-594) with N256A
Method: Fig. 3 Kinetics of SETD3 on H73 and K73 peptides. a Comparison of activities of three variants (WT, N255A, and N255V) on H73(66–80) peptide. The assays were performed at room temperature (~22 °C) and pH 8.0 using [WT] = 0.18 μM, [N255A] = 0.18 μM, and [N255V] = 0.72 μM. b Comparison of SETD3 WT activities on two K73 peptides (residues 66–80 and 66–88). The assays were performed at 37 °C and pH 10.5 using [WT] = 3 and 15 μM, respectively, for the long and short peptides. c Comparison of activities of three variants (N255A, N255V, and WT) on K73(66–88) peptide. The assays were performed at 37 °C and pH 10.5 using [N255A] = 90 nM, [N255V] = 0.72 μM and [WT] = 4 μM. Data represent the mean ± SD of N number of independent determinations (N = 3 for the WT and N = 2 for the mutants) performed in duplicate. […]
Recombinant human SETD3 (pXC2003) was expressed as a GST-fusion[22] in Escherichia coli BL21(DE3) CodonPlus^TM cells (Stratagene). […]
A reaction mixture contained 20 mM Tris/HCl (pH 8.0) or 20 mM glycine/NaOH (pH 10.5), 50 mM NaCl, 0.1 mg/ml BSA, 1 mM DTT, 0.18–15 µM SETD3 (as indicated in Fig. 3), 40 µM SAM and varying concentration of peptides. […] The dependence of the velocity of product formation per enzyme on substrate concentration was analyzed according to the Michaelis–Menten equation.

[1] = pH 10.5, 37 °C, [WT] = 3 and 15 μM for long and short peptide (Fig. 3b), 4 μM (Fig. 3c)
[2] = pH 10.5, 37 °C, [WT] = 3 and 15 μM for long and short peptide (Fig. 3b), 4 μM (Fig. 3c), mean ± SD

Substance	affinity for the substrate weaker than for H73 substrate (SETD3 WT; Km, K73(66–80) vs. H73(66–80))	maximum reaction rate slower than for H73 substrate (SETD3 WT; kcat, K73(66–80) (pH 10.5, 37 °C) vs. H73(66–80) (pH 8.0, ~22 °C))	loss in catalytic efficiency (SETD3 WT; kcat/Km, K73(66–80) vs. H73(66–80))	kcat/Km (SETD3 WT; [1]) [M⁻¹ s⁻¹]	Km (SETD3 WT; [2]) [µM]	kcat (SETD3 WT; [2]) [s⁻¹]	increase of catalytic efficiency on K73 by lengthened peptide (SETD3 WT; factor in kcat/Km, long (66–88) vs. short (66–80) peptide)	Km compared with H73(66–80) peptide (SETD3 WT; pH 10.5, K73(66–88) vs. H73(66–80))	activity of N255A on K73 peptide (SETD3 N255A)
K73(66–80): K73-containing (H73K) actin peptide, residues 66–80 (TLKYPIEKGIVTNWD; UniProt P60709 66-80, looked up, variant H73K)	~ 20 -fold	~ 40 -fold	more than 1000 -fold	0.361	430	0.00017	–	–	–
K73(66–88): K73-containing actin H73K peptide, residues 66–88 (TLKYPIEKGIVTNWDDMEKIWHH; UniProt P60709 66-88, looked up, variant H73K)	–	–	–	36.1	5.2	–	~ 100	about four-fold better	significantly enhanced activity
